From patent publication US20200339690A1 (JOUNCE THERAPEUTICS, published 2020)
Positions count from the first letter of the chain named. Blank lines part the entries; values can stand above or below the binder they belong to.

What was measured:
[1] = target: T1, human LILRB2 expressed on cells (human, UniProt Q8N423 22-597); assay: flow cytometry, LILRB2 CHOs
T1 construct: CHO-s cells over-expressing full-length human LILRB2, or primary human macrophages and dendritic cells; also called hLILRB2-CHO-s; hLILRB2+ CHO-s

[2] = target: T2, human LILRA1 (human, UniProt O75019 17-489); assay: flow cytometry, LILRA1 CHOs
T2 construct: Over-expressed on CHO-s cells; also called hLILRA1
Description: (§1) To test for specificity to hLILRB2 and not towards any of the ten LILR family members, a multiplexed cell-based barcoding approach was used by staining cells with Far Red and/or Violet Cell Trace dyes (Thermo Scientific) according to manufacturer's protocol or left unstained. In brief, cells were washed twice with 1×DPBS and then incubated with diluted dye in 1×DPBS for 20 minutes at 37° C., mixing gently every 5-10 minutes. Dye labeling was quenched by adding equal volume of 100% HI-FBS (Sigma) to the cells. Note that LILRB1, LILRB2, LILRB3, LILRB4, and LILRB5 cell lines are also GFP-positive, while LILRA1, LILRA2, LILRA3, LILRA4, LILRA5, and LILRA6 cell lines are GFP-negative. The cells were then washed twice in 1×DPBS and then all 11 cell lines were combined per well in a 96-well round bottom tissue-culture treated plate. At least 25×10³ cells of each cell-line were plated per well. Cells were then re-suspended in primary antibody (anti-LILRB2 mAbs or control) prepared in FACS buffer (1×DPBS containing 2% HI-FBS (Sigma)+0.05% Sodium Azide). After incubation at 4° C. for 30 minutes, cells were washed twice with 1×DPBS and re-suspended in anti-human IgG-PE (BioLegend) diluted 1:200 in FACS buffer. Following a 30 minute incubation at 4° C., protected from light, cells were washed in 1×DPBS and re-suspended in fix buffer (1.5% paraformaldehyde diluted in 1×DPBS). Samples were analyzed using the Celesta flow cytometer analyzer (BD Biosciences). Geometric mean fluorescence intensity (gMFI) of PE was determined for each antibody across each cell line. Background MFI was detected with isotype control and relative binding of antibodies tested was measured as a fold over isotype.

[3] = target: human LILRB2-His (human, UniProt Q8N423 22-460); assay: SPR, Sierra Sensors MASS-2; antibody captured on anti-human Fc, LILRB2-His 65 to 0.27 nM, 1:1 Langmuir fit
Description: Using a Mass-2 (Sierra Sensors) high capacity amine chip preimmobilized with AffiniPure Goat Anti-Human IgG, Fcγ Fragment Specific antibody, humanized antibodies were captured on the anti-human surface and then binding to human LILRB2-His was measured by flowing six different concentrations from 65 to 0.27 nM of the analyte over the antibody surface. The anti-LILRB2 surface was removed (10 mM Glycine, pH 2.0) and recaptured between all concentrations or buffer only cycles. The data was analyzed using the Sierra Analyzer software (version 3.1.14). All curves were double subtracted and fit to a 1:1 Langmuir Fit.

[4] = target: T1, human LILRB2 expressed on cells; assay: flow cytometry, binding to hLILRB2 CHOs
[5] = target: T3, human LILRB5 (human, UniProt O75023 24-590); assay: flow cytometry, LILRB5 CHOs
T3 construct: Over-expressed on CHO-s cells; also called hLILRB5
Description: as §1

[6] = target: T4, human LILRA3 (human, UniProt Q8N6C8 24-439); assay: flow cytometry, LILRA3 CHOs
T4 construct: Over-expressed on CHO-s cells; also called hLILRA3
Description: as §1

[7] = target: T5, human LILRB1 (human, UniProt Q8NHL6 24-650); assay: flow cytometry, LILRB1 CHOs
T5 construct: Over-expressed on CHO-s cells; also called hLILRB1
Description: as §1

[8] = target: T6, human LILRA4 (human, UniProt P59901 24-499); assay: flow cytometry, LILRA4 CHOs
T6 construct: Over-expressed on CHO-s cells; also called hLILRA4
Description: as §1

[9] = target: T1, human LILRB2 expressed on cells; assay: cell-based or functional assay
[10] = target: T7, human LILRA6 (human, UniProt Q6PI73 24-481); assay: flow cytometry, LILRA6 CHOs
T7 construct: Over-expressed on CHO-s cells; also called hLILRA6
Description: as §1

[11] = target: T8, human LILRA2 (human, UniProt Q8N149 24-483); assay: flow cytometry, LILRA2 CHOs
T8 construct: Over-expressed on CHO-s cells; also called hLILRA2
Description: as §1

[12] = target: T1, human LILRB2 expressed on cells; assay: HLA-A2:LILRB2 blocking; HLA-A2 tetramer on primary human macrophages, flow cytometry
Description: (§2) The potency of select humanized variants in blocking the interaction of HLA-G and HLA-A2 with primary human macrophage-expressed hLILRB2 were assessed. Primary human monocytes were differentiated into macrophages in the presence of M-CSF. After seven days of differentiation, 1×10⁵ HMDMs were plated in 96-well round-bottom tissue culture-treated plate and washed twice with 1×DPBS (Gibco) and then incubated with 50 μL primary antibody (anti-LILRB2 mAbs or control) prepared in FACS buffer (1×DPBS containing 2% HI-FBS (Sigma)+0.05% Sodium Azide). After incubation with mAbs for 30 minutes at 4° C., cells were washed twice in FACS buffer and then resuspended in 50 μL of FACS buffer containing 5 μg/mL APC-conjugated HLA-G or HLA-A2 tetramer (Fred Hutch). Cells were incubated protected from light for 30-60 minutes at 4° C. After incubation with tetramer, cells were washed in FACS buffer and re-suspended in fix buffer (1.5% paraformaldehyde diluted in 1×DPBS). Samples were analyzed using the Celesta flow cytometer analyzer (BD Biosciences).

[13] = target: T1, human LILRB2 expressed on cells; assay: HLA-G:LILRB2 blocking; HLA-G tetramer on primary human macrophages, flow cytometry
Description: as §2

[14] = target: T9, human LILRB3 (human, UniProt O75022 24-631); assay: flow cytometry, LILRB3 CHOs
T9 construct: Over-expressed on CHO-s cells; also called hLILRB3
Description: as §1

[15] = target: T10, human LILRB4 (human, UniProt Q8NHJ6 22-448); assay: flow cytometry, LILRB4 CHOs
T10 construct: Over-expressed on CHO-s cells; also called hLILRB4
Description: as §1

[16] = target: T11, human LILRA5 (human, UniProt A6NI73 42-299); assay: flow cytometry, LILRA5 CHOs
T11 construct: Over-expressed on CHO-s cells; also called hLILRA5
Description: as §1

T8 sequence (Q8N149 24-483 S135L limits assumed): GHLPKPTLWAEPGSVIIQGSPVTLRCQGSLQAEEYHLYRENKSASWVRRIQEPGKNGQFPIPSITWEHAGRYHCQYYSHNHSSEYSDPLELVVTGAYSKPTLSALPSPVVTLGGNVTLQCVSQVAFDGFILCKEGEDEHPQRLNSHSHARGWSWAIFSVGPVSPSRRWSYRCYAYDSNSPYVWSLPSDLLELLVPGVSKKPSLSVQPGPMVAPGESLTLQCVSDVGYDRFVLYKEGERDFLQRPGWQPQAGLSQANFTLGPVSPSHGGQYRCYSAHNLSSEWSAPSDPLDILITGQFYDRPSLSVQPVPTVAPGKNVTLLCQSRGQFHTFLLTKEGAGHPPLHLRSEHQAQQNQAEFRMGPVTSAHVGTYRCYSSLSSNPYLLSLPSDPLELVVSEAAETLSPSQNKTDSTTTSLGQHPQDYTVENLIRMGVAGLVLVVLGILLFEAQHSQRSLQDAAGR
T1 sequence (Q8N423 other isoform, or with tags, fused parts or gaps limits assumed): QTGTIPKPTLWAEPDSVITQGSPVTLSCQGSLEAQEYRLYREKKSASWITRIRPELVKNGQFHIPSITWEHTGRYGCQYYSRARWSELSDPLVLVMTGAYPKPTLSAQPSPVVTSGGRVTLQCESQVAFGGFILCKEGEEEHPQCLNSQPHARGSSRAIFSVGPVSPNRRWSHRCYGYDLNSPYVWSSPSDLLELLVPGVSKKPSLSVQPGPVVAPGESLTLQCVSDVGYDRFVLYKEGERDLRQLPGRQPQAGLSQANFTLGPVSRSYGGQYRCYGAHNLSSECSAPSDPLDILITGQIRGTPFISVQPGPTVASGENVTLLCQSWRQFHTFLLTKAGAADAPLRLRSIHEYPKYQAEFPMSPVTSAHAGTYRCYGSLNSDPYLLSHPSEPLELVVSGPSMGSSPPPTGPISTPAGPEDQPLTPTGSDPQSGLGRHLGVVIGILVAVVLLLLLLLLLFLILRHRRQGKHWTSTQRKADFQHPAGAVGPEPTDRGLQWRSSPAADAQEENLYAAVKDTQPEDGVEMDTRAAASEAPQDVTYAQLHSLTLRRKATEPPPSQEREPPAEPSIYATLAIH
T5 sequence (Q8NHL6 24-650 limits assumed): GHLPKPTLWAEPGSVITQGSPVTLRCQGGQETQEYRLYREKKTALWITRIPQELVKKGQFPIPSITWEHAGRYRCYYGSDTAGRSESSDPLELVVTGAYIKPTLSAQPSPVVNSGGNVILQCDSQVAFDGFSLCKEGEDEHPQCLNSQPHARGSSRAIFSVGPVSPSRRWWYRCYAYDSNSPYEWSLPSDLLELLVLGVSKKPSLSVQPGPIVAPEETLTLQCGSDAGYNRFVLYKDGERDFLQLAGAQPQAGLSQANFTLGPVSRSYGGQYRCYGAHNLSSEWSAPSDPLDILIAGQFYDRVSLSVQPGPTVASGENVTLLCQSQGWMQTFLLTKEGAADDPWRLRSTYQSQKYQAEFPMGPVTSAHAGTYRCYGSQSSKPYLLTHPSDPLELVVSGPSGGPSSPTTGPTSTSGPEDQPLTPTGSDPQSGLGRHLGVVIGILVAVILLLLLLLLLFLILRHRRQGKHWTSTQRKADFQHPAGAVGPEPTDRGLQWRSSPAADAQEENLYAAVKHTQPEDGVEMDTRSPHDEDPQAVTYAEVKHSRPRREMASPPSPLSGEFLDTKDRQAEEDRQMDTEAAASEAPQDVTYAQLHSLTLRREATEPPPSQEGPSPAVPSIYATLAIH
T6 sequence (P59901 other isoform, or with tags, fused parts or gaps limits assumed): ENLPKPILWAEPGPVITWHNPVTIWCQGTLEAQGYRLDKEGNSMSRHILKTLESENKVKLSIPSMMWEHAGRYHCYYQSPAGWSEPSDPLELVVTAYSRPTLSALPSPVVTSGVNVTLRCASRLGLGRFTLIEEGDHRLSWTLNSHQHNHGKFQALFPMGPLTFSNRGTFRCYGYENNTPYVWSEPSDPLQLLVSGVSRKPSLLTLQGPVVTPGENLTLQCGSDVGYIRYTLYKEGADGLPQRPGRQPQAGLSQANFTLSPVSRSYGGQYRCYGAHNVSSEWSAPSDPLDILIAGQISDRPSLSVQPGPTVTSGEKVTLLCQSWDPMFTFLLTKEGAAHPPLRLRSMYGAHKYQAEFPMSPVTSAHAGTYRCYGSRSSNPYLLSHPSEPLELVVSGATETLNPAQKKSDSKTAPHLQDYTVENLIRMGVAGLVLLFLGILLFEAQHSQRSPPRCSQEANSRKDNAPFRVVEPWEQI
Chain of human LILRB2-His (Q8N423 other isoform, or with tags, fused parts or gaps): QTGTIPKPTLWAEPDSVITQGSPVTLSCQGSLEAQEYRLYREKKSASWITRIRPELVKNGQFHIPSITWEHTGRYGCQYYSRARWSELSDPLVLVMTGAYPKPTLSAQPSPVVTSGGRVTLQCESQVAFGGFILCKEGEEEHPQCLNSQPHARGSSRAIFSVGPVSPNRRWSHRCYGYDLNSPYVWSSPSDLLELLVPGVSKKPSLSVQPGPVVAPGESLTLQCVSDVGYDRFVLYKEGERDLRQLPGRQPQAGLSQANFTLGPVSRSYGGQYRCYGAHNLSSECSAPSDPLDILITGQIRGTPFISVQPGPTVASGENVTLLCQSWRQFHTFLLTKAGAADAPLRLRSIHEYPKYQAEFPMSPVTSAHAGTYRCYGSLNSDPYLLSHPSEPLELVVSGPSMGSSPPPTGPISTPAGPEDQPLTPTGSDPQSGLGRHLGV
T2 sequence (O75019 17-489 limits assumed): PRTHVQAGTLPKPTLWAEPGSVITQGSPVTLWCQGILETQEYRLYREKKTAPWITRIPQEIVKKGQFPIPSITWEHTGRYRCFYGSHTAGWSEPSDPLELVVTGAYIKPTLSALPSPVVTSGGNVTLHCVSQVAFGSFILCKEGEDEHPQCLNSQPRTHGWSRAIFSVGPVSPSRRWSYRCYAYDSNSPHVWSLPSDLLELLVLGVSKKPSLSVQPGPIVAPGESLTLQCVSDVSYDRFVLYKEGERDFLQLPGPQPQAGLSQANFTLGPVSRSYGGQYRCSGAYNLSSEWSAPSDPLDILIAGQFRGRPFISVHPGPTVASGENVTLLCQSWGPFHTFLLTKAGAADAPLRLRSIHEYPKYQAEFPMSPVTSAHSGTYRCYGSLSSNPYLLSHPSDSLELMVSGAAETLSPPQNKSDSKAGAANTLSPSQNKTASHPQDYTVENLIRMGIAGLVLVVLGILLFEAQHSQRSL
T7 sequence (Q6PI73 24-481 limits assumed): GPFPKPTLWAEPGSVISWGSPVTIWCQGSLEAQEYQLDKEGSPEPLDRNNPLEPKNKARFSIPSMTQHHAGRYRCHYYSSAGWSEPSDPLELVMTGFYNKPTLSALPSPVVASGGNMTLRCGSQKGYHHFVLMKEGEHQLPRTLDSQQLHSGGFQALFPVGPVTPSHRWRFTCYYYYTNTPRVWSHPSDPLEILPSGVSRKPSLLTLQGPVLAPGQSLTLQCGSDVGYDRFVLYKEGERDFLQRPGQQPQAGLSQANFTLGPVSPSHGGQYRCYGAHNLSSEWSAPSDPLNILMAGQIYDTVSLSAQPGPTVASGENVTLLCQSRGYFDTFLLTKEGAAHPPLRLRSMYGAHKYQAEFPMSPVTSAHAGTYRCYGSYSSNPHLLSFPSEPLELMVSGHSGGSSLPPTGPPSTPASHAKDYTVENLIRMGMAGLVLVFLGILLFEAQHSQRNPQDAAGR
T4 sequence (Q8N6C8 24-439 limits assumed): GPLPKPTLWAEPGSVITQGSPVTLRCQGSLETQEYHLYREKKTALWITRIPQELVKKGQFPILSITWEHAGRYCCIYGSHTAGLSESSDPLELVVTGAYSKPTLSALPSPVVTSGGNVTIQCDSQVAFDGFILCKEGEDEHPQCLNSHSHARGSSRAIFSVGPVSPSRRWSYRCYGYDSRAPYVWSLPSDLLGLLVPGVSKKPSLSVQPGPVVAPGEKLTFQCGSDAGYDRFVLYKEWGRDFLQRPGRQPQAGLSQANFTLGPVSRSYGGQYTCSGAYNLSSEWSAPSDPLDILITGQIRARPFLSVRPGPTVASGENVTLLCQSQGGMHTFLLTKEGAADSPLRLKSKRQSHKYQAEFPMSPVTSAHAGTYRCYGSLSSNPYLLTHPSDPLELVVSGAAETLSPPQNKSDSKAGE
T3 sequence (O75023 24-590 P542R limits assumed): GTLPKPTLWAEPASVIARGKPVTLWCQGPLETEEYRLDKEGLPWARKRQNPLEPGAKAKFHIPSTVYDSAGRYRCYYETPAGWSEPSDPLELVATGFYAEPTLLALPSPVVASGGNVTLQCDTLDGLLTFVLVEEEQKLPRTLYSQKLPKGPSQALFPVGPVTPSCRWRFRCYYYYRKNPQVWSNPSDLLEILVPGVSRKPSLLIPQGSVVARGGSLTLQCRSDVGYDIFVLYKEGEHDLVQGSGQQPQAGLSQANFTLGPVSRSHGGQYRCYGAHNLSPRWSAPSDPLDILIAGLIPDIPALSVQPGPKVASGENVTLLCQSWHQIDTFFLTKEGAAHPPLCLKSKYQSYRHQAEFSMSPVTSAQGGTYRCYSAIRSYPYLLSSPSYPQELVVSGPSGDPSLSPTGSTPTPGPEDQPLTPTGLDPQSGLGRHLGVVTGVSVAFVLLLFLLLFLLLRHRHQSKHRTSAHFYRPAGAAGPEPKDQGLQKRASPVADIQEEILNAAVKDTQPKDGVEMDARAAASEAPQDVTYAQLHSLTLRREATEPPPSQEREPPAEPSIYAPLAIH
T11 sequence (A6NI73 42-299 limits assumed): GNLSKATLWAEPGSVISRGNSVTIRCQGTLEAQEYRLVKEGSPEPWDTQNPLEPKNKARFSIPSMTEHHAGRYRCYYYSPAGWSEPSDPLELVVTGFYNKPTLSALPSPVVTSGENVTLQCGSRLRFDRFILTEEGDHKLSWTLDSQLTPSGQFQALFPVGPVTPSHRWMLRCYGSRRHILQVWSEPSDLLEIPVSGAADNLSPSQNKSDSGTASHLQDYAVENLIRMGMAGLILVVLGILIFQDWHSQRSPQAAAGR

- binding (fold over iso) [1]: 76.5 fold over iso
- binding (fold over iso) [2]: 0.99 fold over iso
- binding result [2]: no binding
- Kd [3]: 2.33 nM
- koff [3]: 0.0012 s⁻¹
- kon [3]: 513000 M⁻¹ s⁻¹
- EC50 [4]: 0.00175 nM
- binding (fold over iso) [5]: 1.27 fold over iso
- binding result [5]: no binding
- binding (fold over iso) [6]: 0.99 fold over iso
- binding result [6]: no binding
- binding (fold over iso) [7]: 0.87 fold over iso
- binding result [7]: no binding
- binding (fold over iso) [8]: 1.09 fold over iso
- binding result [8]: no binding
- EC50, IL-6 production by LPS-stimulated HMDMs [9]: 0.091 nM
- EC50, TNFa production by LPS-stimulated HMDMs [9]: 0.084 nM
- IC50, CCL2 production by LPS-stimulated HMDMs [9]: 0.01 nM
- IC50, IL-10 production by LPS-stimulated HMDMs [9]: 0.19 nM
- binding (fold over iso) [10]: 1.27 fold over iso
- binding result [10]: no binding
- binding (fold over iso) [11]: 0.96 fold over iso
- binding result [11]: no binding
- EC50 [12]: 0.106 nM
- EC50 [13]: 0.131 nM
- binding (fold over iso) [14]: 1.24 fold over iso
- binding result [14]: no binding
B1: J-19.h4 (antibody, human IgG4 S228P, kappa, V domains shown)
VH: QVTLKESGPALVKPTHTLTLTCTFSGFSLNTYAMGVSWIRQPPGKALEWLASIWWNGNKYNNPSLKSRLTISKDTSKNQVVLTMTNMDPEDTATFYCAHSRIIRFTDYVMDAWGRGTTVTVSS
VL: DIVMTQSPSSLSASVGDTVTITCRASEDIYNDLAWYQQKPGKAPQLLLYNANSLHTGVPSRFSGSGSGTDYTLTISTLQPEDFATYYCQQYYDYPLTFGPGTKVHIKR
notes: Humanized, human IgG4 backbone

- binding (fold over iso) [1]: 74.5 fold over iso
- binding (fold over iso) [2]: 0.89 fold over iso
- binding result [2]: no binding
- Kd [3]: 4.58 nM
- koff [3]: 0.00238 s⁻¹
- kon [3]: 521000 M⁻¹ s⁻¹
- EC50 [4]: 0.447 nM
- binding (fold over iso) [5]: 0.76 fold over iso
- binding result [5]: no binding
- binding (fold over iso) [6]: 0.83 fold over iso
- binding result [6]: no binding
- binding (fold over iso) [7]: 0.73 fold over iso
- binding result [7]: no binding
- binding (fold over iso) [8]: 0.84 fold over iso
- binding result [8]: no binding
- binding (fold over iso) [15]: 0.9 fold over iso
- binding result [15]: no binding
- EC50, IL-6 production by LPS-stimulated HMDMs [9]: 0.186 nM
- EC50, TNFa production by LPS-stimulated HMDMs [9]: 0.12 nM
- IC50, CCL2 production by LPS-stimulated HMDMs [9]: 0.011 nM
- IC50, IL-10 production by LPS-stimulated HMDMs [9]: 0.702 nM
- binding (fold over iso) [10]: 0.74 fold over iso
- binding result [10]: no binding
- binding (fold over iso) [11]: 0.66 fold over iso
- binding result [11]: no binding
- EC50 [12]: 0.087 nM
- binding (fold over iso) [16]: 0.86 fold over iso
- binding result [16]: no binding
- EC50 [13]: 0.122 nM
- binding (fold over iso) [14]: 0.81 fold over iso
- binding result [14]: no binding
B2: J-19.h2 (antibody, human IgG4 S228P, kappa, V domains shown)
VH: B1 VH with V2I, A10T, H16Q, I71V, S72T, E90V, F95Y, R115Q, T118L
VL: B1 VL
notes: as for B1
